For this series the following is noted: Rattus norvegicus, pH 7, Thermal, CD, HEPES 10 mM, whole UniProt chain shown.

B1: High mobility group protein B1 wild type, P63159 (protein)
chain: MGKGDPKKPRGKMSSYAFFVQTCREEHKKKHPDASVNFSEFSKKCSERWKTMSAKEKGKFEDMAKADKARYEREMKTYIPPKGETKKKFKDPNAPKRPPSAFFLFCSEYRPKIKGEHPGLSIGDVAKKLGEMWNNTAADDKQPYEKKAAKLKEKYEKDIAAYRAKGKPDAAKKGVVKAEKSKKKKEEEDDEEDEEDEEEEEEEEDEDEEEDDDDE
As a reminder, the Tm is the temperature at the midpoint of the melting transition. Turning to B1, the Tm is 40.6 °C and the “unfolding enthalpy (van 't Hoff)” value is 35.7 kcal/mol. The unfolding free energy (20 °C, NiSO4 1 mM) is 2.7 kcal/mol. For the same protein, for the setting “NiSO4 1 mM”, the melting temperature (Tm) was 40.6 °C and the “unfolding enthalpy (van 't Hoff)” value is 35.7 kcal/mol.
